According to doi:10.1101/2025.07.17.665365, “A protein-dependent riboswitch activates ribosomal frameshifting in cardioviruses”:

Tests used:
TMEV 2A [1] = target: T1, TMEV 2A (Theiler's murine encephalitis virus …, UniProt P08545 923-1055); assay: EMSA; EMSA: 10 mM Tris-HCl pH 7.4, ~140 mM NaCl, 2 mM Mg acetate, 1 mM DTT, 5% glycerol, 50 nM RNA, 37 C; MST: 20 mM Tris-HCl pH 7.4, 400 mM NaCl, 1 mM MgCl2, 1 mM DTT, 0.05% Tween-20, 0.1 mg/ml tRNA, 22 C; smFRET: 10 mM Tris-HCl pH 7.4, 150 mM NaCl, 1 mM MgCl2, 1 mM DTT, 0.1 mg/ml BSA, ambient; conditions: protein: recombinant, tags: His6-MBP, TEV-cleaved/removed, label: 5' Cy5 or AzDye647
T1 sequence: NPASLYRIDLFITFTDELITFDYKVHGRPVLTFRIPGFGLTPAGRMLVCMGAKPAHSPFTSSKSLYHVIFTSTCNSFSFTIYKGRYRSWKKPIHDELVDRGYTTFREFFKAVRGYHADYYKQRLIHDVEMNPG

TMEV 2A [2] = target: T1, TMEV 2A; assay: EMSA; range given jointly for +1 and -1 bp; EMSA: 10 mM Tris-HCl pH 7.4, ~140 mM NaCl, 2 mM Mg acetate, 1 mM DTT, 5% glycerol, 50 nM RNA, 37 C; MST: 20 mM Tris-HCl pH 7.4, 400 mM NaCl, 1 mM MgCl2, 1 mM DTT, 0.05% Tween-20, 0.1 mg/ml tRNA, 22 C; smFRET: 10 mM Tris-HCl pH 7.4, 150 mM NaCl, 1 mM MgCl2, 1 mM DTT, 0.1 mg/ml BSA, ambient; conditions: protein: recombinant, tags: His6-MBP, TEV-cleaved/removed, label: 5' Cy5 or AzDye647
TMEV 2A [3] = target: T1, TMEV 2A; assay: X-ray crystallography; 1.9 A; pseudoknot; EMSA: 10 mM Tris-HCl pH 7.4, ~140 mM NaCl, 2 mM Mg acetate, 1 mM DTT, 5% glycerol, 50 nM RNA, 37 C; MST: 20 mM Tris-HCl pH 7.4, 400 mM NaCl, 1 mM MgCl2, 1 mM DTT, 0.05% Tween-20, 0.1 mg/ml tRNA, 22 C; smFRET: 10 mM Tris-HCl pH 7.4, 150 mM NaCl, 1 mM MgCl2, 1 mM DTT, 0.1 mg/ml BSA, ambient; conditions: protein: recombinant; tags: His6-MBP, TEV-cleaved/removed; stem-loop alone
TMEV 2A [4] = target: T1, TMEV 2A; assay: smFRET; 0.5 uM 2A; E 0.58 to 0.83; EMSA: 10 mM Tris-HCl pH 7.4, ~140 mM NaCl, 2 mM Mg acetate, 1 mM DTT, 5% glycerol, 50 nM RNA, 37 C; MST: 20 mM Tris-HCl pH 7.4, 400 mM NaCl, 1 mM MgCl2, 1 mM DTT, 0.05% Tween-20, 0.1 mg/ml tRNA, 22 C; smFRET: 10 mM Tris-HCl pH 7.4, 150 mM NaCl, 1 mM MgCl2, 1 mM DTT, 0.1 mg/ml BSA, ambient; conditions: protein: recombinant; tags: His6-MBP, TEV-cleaved/removed; label: 5' Cy5; U31 Cy3; stem-loop / pseudoknot
TMEV 2A [5] = target: T1, TMEV 2A; assay: smFRET; 0.5 uM 2A; E 0.85 to 0.63; EMSA: 10 mM Tris-HCl pH 7.4, ~140 mM NaCl, 2 mM Mg acetate, 1 mM DTT, 5% glycerol, 50 nM RNA, 37 C; MST: 20 mM Tris-HCl pH 7.4, 400 mM NaCl, 1 mM MgCl2, 1 mM DTT, 0.05% Tween-20, 0.1 mg/ml tRNA, 22 C; smFRET: 10 mM Tris-HCl pH 7.4, 150 mM NaCl, 1 mM MgCl2, 1 mM DTT, 0.1 mg/ml BSA, ambient; conditions: protein: recombinant; tags: His6-MBP, TEV-cleaved/removed; label: 5' Cy5; 3' Cy3; stem-loop / pseudoknot
TMEV 2A [6] = target: T1, TMEV 2A; assay: SEC-SAXS; SASDWS5; EMSA: 10 mM Tris-HCl pH 7.4, ~140 mM NaCl, 2 mM Mg acetate, 1 mM DTT, 5% glycerol, 50 nM RNA, 37 C; MST: 20 mM Tris-HCl pH 7.4, 400 mM NaCl, 1 mM MgCl2, 1 mM DTT, 0.05% Tween-20, 0.1 mg/ml tRNA, 22 C; smFRET: 10 mM Tris-HCl pH 7.4, 150 mM NaCl, 1 mM MgCl2, 1 mM DTT, 0.1 mg/ml BSA, ambient; conditions: protein: recombinant; tags: His6-MBP, TEV-cleaved/removed; 7 bp stem-loop with unpaired 5' tail alone; pseudoknot in complex

Binder: CAAGGUGCCCACGAUACUAAAUCCCAUCGUGGCC (structured_RNA) [Stem 2 swap]
- Kd (TMEV 2A [1]; stem-loop / pseudoknot): ~313 nM

Binder: CAAGGUGGGGUGCUUACUAAAUCCCAAGCACCCC (structured_RNA) [+1 bp stem 2]
- Kd (TMEV 2A [2]; 8 bp S2): ~442 nM

Binder: CAAGGUGCGGUGCUAACUAAAUCCCUAGCACCCC (structured_RNA) [TMEV minimal stimulatory element (oligo 1)]
- binding result (TMEV 2A [3]): binds

Binder: CAAGGUGCGGUGCUAACUAAAUCGCUAGCACCCC (structured_RNA) [C37G]
- binding result (TMEV 2A [1]; stem-loop): no binding

Binder: CAAGGUGCGGUGCUAACUAAAUGCCUAGCACCCC (structured_RNA) [C36G]
- binding result (TMEV 2A [1]; stem-loop): no binding

Binder: CAAGGUGCGGUGCUAACUAAAUCCCUAGCACCCC (structured_RNA, U31 Cy3 (internal)) [TMEV internal reporter RNA]
- binding result (TMEV 2A [4]): binds

Binder: CAAGGUGCGGUGCUAACUAAAUCCCUAGCACCCC (structured_RNA) [TMEV end reporter RNA]
- binding result (TMEV 2A [5]): binds

Binder: CCACAAGGUGCGGUGCUAACUAAAUCCCUAGCACCCC (structured_RNA) [TMEV stimulatory element, SAXS RNA]
- binding result (TMEV 2A [6]): binds

Binder: CAACCUCCGGUGCUAACUAAAUGGGUAGCACCCC (structured_RNA) [Stem 1 swap]
- binding result (TMEV 2A [1]; stem-loop / pseudoknot): no binding

Binder: CAAGGGCGGUGCUAACUAAAUCCCUAGCACCCC (structured_RNA) [dU19 stem 1]
- binding result (TMEV 2A [1]; stem-loop / pseudoknot): no binding

Binder: CAAUUUUCGGUGCUAACUAAAUAAAUAGCACCCC (structured_RNA) [UA stem 1]
- binding result (TMEV 2A [1]; stem-loop / pseudoknot): no binding

Binder: CAAGGUGCGGUGCUACUAAAUCCCAGCACCCC (structured_RNA) [-1 bp stem 2]
- Kd (TMEV 2A [2]; 6 bp S2): ~442 nM

Binder: CAAGGUGCGGUGCACUAAAUCCCGCACCCC (structured_RNA) [-2 bp stem 2]
- binding result (TMEV 2A [1]; 5 bp S2): no binding

Binder: CAAAAUACGGUGCUAACUAAAUUUUUAGCACCCC (structured_RNA) [AU stem 1]
- binding result (TMEV 2A [1]; stem-loop / pseudoknot): no binding
